Experimental data from IntAct's records for PubMed 16263329.

B1: Anti-sigma-F factor antagonist RsfB (Mycobacterium tuberculosis (strain ATCC 25618 / P9WGE1 (parent)
chain: MSAPDSITVTVADHNGVAVLSIGGEIDLITAAALEEAIGEVVADNPTALVIDLSAVEFLGSVGLKILAATSEKIGQSVKFGVVARGSVTRRPIHLMGLDKTFRLFSTLHDALTGVRGGRIDR
partner: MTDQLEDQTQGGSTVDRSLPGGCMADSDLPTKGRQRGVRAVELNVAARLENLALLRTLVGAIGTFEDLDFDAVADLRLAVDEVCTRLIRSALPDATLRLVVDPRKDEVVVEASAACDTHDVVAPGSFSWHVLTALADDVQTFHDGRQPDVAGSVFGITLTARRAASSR

Variants of: B1
Conditions: with rsbw_myctu rsbW
In the case of S61A, the “effect of a mutation on the interaction” value is reported as “decreasing interaction”.
